Laboratory results as given in patent US5877009, “Isolated ApoA-I gene regulatory sequence elements” (Trustees of Boston University).

Legend:
C/EBP (C/EBPalpha) [1] = target: T1, C/EBP (C/EBPalpha) (Rattus norvegicus, UniProt P05554 P05554:1-358); experiment: EMSA; conditions: tags: E. coli pT7-7, about 40 kDa, chain copies: 2
C/EBP (C/EBPalpha) [2] = target: T1, C/EBP (C/EBPalpha); experiment: EMSA; text cites SEQ ID NO:41, Table 3 lists AlbD as SEQ ID NO:47; conditions: tags: E. coli pT7-7, about 40 kDa; chain copies: 2; label: 32P
C/EBP (C/EBPalpha) [3] = target: T1, C/EBP (C/EBPalpha); experiment: EMSA; C/EBP-BA3 complex; conditions: tags: E. coli pT7-7, about 40 kDa; chain copies: 2; label: 32P

T1 sequence (P05554 whole entry, one chain of several): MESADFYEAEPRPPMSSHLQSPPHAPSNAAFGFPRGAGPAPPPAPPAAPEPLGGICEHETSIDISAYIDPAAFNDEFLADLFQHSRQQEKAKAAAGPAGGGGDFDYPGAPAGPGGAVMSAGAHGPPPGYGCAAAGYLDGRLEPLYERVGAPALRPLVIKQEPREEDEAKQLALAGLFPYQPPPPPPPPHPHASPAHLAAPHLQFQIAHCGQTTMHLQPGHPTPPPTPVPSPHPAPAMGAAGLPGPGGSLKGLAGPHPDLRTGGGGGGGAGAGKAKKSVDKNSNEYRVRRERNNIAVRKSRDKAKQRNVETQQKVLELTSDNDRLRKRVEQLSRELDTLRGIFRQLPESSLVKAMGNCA

B1: apoA-II element K (-760 to -743) (dsDNA)
DNA 1: TAAGGTGATCAAATGACC
DNA 2: GGTCATTTGATCACCTTA
binding result (C/EBP (C/EBPalpha) [1]): no binding

B2: Albumin D C/EBP site (AlbD, -115 to -90) (dsDNA)
DNA 1: TGGTATGATTTTGTAATGGGGTAGGA
DNA 2: TCCTACCCCATTACAAAATCATACCA
binding result (C/EBP (C/EBPalpha) [2]): binds

B3: CIIIB(WT) apoCIII -92 to -67 (dsDNA)
DNA 1: GGTCAGCAGGTGACCTTTGCCCAGCG
DNA 2: CGCTGGGCAAAGGTCACCTGCTGACC
binding result (C/EBP (C/EBPalpha) [1]; label: 32P, GGG/CCC 5' overhangs): no binding

B4: BA3 apoB -78 to -48 (dsDNA)
DNA 1: GCCCTTTGGACCTTTTGCAATCCTGGCGCT
DNA 2: AGCGCCAGGATTGCAAAAGGTCCAAAGGGC
binding result (C/EBP (C/EBPalpha) [3]): binds
